This is an account of results in patent US20080058263A1 (published 2008).

Holding throughout (assay): receptor-Fc IP
For one assay, the target named is T1, VEGFR-3-Fc (UniProt P35916 25-328).
T1 construct: domain: first three Ig domains; conditioned supernatant of 293T cells; also called VEGFR-3-Fc fusion protein; not shown: Fc fragment of the pIg vector
T1 sequence (looked up): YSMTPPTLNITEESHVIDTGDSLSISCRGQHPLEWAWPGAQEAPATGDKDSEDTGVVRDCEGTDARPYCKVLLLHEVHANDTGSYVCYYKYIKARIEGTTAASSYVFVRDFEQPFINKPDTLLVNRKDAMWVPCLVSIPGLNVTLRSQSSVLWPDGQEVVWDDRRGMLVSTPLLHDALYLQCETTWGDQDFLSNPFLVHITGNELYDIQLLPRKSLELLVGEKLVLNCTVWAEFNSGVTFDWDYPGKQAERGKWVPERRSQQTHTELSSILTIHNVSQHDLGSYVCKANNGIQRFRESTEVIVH
Summed up: (§1)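 fusion protein at 400 ng/ml in an IP mix (PBS, 1.5% BSA, 0.06% Tween 20, 3 μg/ml heparin) was combined with sample supernatant at a 1:2 ratio. Bound ligand captured by immunoprecipitation with pentahistidine antibody.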

The next assay deals with T2, VEGFR-1-Fc (UniProt P17948 27-338).
T2 construct: domain: first three Ig domains; expressed in Drosophila S2 cells, purified on Protein A sepharose; also called VEGFR-1-Fc fusion protein; not shown: Fc fragment from the Signal-pIgPlus vector
Summed up:
as §1

For a further assay, the target named is T3, VEGFR-2-Fc (UniProt P35968 20-322).
T3 construct: domain: first 3 Ig domains; conditioned supernatant of 293T cells; also called VEGFR-2-Fc fusion protein; not shown: Fc fragment of the pIg vector
An outline of the steps: as §1

T3 sequence (P35968 20-322): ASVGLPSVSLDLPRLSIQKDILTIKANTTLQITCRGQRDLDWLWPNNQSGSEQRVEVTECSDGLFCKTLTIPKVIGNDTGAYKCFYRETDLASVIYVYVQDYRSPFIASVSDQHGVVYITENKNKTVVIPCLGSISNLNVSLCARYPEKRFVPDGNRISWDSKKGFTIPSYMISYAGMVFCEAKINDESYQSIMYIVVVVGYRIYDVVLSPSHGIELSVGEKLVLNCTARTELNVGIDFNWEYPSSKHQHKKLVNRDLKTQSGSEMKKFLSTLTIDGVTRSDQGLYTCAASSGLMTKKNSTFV
T2 sequence (P17948 27-338): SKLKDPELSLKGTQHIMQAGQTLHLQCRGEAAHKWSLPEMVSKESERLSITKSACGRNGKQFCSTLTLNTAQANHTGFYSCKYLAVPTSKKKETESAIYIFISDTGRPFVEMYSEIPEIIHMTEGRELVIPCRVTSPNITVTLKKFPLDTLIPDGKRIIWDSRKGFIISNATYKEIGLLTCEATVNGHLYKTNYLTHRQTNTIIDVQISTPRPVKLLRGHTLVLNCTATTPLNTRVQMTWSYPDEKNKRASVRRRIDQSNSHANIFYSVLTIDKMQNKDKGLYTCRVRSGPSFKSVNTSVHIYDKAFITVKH

B1: 84-3 (ligand)
chain: AHYNTEILKFMDVYQRSYCHPIETLVDIFQEFGVATNTFFKPSCVPLMRCGGCCNSEGLQCVPTEESNITMQIMRIKPHQGQHIGEMSFLQHNKCECRPKKD
Take B1: the results for the binding result with VEGFR-3-Fc, with VEGFR-1-Fc and with VEGFR-2-Fc were “no binding”, “binds” and “binds”, respectively.

B2: 84-5 (ligand)
chain: AHYNTEILKFMDVYQRSYCHPIETLVDIFQEFGVATNTFFKPSCVPLMRCGGCCNDEGLECVPTEESNITMQIMRIKPHQGQHIGEMSFANHTSCRCMSKLD
On to B2, for which the binding result with VEGFR-3-Fc is “no binding”; with VEGFR-1-Fc, “binds”; with VEGFR-2-Fc, “no binding”.

B3: 72-10 (ligand)
chain: GQNHHEVVKSIDNEWRKTQCMPREVCIDVGKEFGVATNTFFKPPCVSVYRCGGCCNDEGLECMNTSTSYLSKTLFEITVPLSQGPKPVTISFLQHNKCECRPKKD
Consider B3, for which the values for the binding result in the assay with VEGFR-3-Fc, in the assay with VEGFR-1-Fc and in the assay with VEGFR-2-Fc were “binds”, “no binding” and “binds”, respectively.

B4: 72-12 (ligand)
chain: GQNHHEVVKSIDNEWRKTQCMPREVCIDVGKEFGVATNTFFKPPCVSVYRCGGCCNSEGLQCMNTSTSYLSKTLFEITVPLSQGPKPVTISFLQHNKCECRPKKD
Regarding B4, the figures for the binding result with VEGFR-3-Fc, with VEGFR-1-Fc and with VEGFR-2-Fc were “binds”, “no binding” and “binds”, respectively.

B5: 22-3 (ligand)
chain: AHYNTEILKSIDNEWRKTQCMPREVCIDVGKEFGVATNTFFKPPCVSVYRCGGCCNSEGLQCVPTEESNITMQIMRIKPHQGQHIGEMSFLQHNKCECRPKKD
In the case of B5, the figures for the binding result in the assay with VEGFR-3-Fc, with VEGFR-1-Fc and with VEGFR-2-Fc were “binds”, “no binding” and “no binding”, respectively.

B6: 11-3 (ligand)
chain: GQNHHEVVKFMDVYQRSYCHPIETLVDIFQEYPDEIEYIFKPSCVPLMRCGGCCNSEGLQCVPTEESNITMQIMRIKPHQGQHIGEMSFLQHNKCECRPKKD
Consider B6, for which the values for the binding result in the assay with VEGFR-3-Fc, in the assay with VEGFR-1-Fc and in the assay with VEGFR-2-Fc were “no binding”, “binds” and “binds”, respectively.

B7: 11-5 (ligand)
chain: GQNHHEVVKFMDVYQRSYCHPIETLVDIFQEYPDEIEYIFKPSCVPLMRCGGCCNDEGLECVPTEESNITMQIMRIKPHQGQHIGEMSFANHTSCRCMSKLD
Turning to B7, the binding result is “no binding” in the assay with VEGFR-3-Fc, “binds” with VEGFR-1-Fc and “binds” in the assay with VEGFR-2-Fc.

B8: 11-7 (ligand)
chain: GQNHHEVVKFMDVYQRSYCHPIETLVDIFQEYPDEIEYIFKPSCVPLMRCGGCCNSEGLQCVPTEESNITMQIMRIKPHQGQHIGEMSFANHTSCRCMSKLD
Take B8: the results for the binding result in the assay with VEGFR-3-Fc, with VEGFR-1-Fc and with VEGFR-2-Fc were “no binding”, “binds” and “binds”, respectively.

B9: 11-9 (ligand)
chain: GQNHHEVVKFMDVYQRSYCHPIETLVDIFQEYPDEIEYIFKPSCVPLMRCGGCCNDEGLECVPTEESNITMQIMRITVPLSQGPKPVTISFLQHNKCECRPKKD
Turning to B9, the figures for the binding result with VEGFR-3-Fc, in the assay with VEGFR-1-Fc and with VEGFR-2-Fc were “no binding”, “binds” and “no binding”, respectively.

B10: 11-11 (ligand)
chain: GQNHHEVVKFMDVYQRSYCHPIETLVDIFQEYPDEIEYIFKPSCVPLMRCGGCCNSEGLQCVPTEESNITMQIMRITVPLSQGPKPVTISFLQHNKCECRPKKD
As for B10, the results for the binding result with VEGFR-3-Fc, in the assay with VEGFR-1-Fc and with VEGFR-2-Fc were “no binding”, “binds” and “binds”, respectively.

B11: 61-15 (ligand)
chain: GQNHHEVVKFMDVYQRSYCHPREVCIDVGKEYPDEIEYIFKPSCVPLMRCGGCCNSEGLQCVPTEESNITMQIMRITVPLSQGPKPVTISFANHTSCRCMSKLD
As for B11, the binding result with VEGFR-3-Fc, in the assay with VEGFR-1-Fc and in the assay with VEGFR-2-Fc was “no binding” throughout.

B12: 13-15 (ligand)
chain: GQNHHEVVKFMDVYQRSYCHPIETLVDIFQEYPDEIEYIFKPPCVSVYRCGGCCNSEGLQCVPTEESNITMQIMRITVPLSQGPKPVTISFANHTSCRCMSKLD
Consider B12, for which the figures for the binding result in the assay with VEGFR-3-Fc, in the assay with VEGFR-1-Fc and with VEGFR-2-Fc were “no binding”, “binds” and “no binding”, respectively.

B13: 43-15 (ligand)
chain: AHYNTEILKFMDVYQRSYCHPREVCIDVGKEYPDEIEYIFKPPCVSVYRCGGCCNSEGLQCVPTEESNITMQIMRITVPLSQGPKPVTISFANHTSCRCMSKLD
Take B13: the binding result with VEGFR-3-Fc, with VEGFR-1-Fc and with VEGFR-2-Fc was “no binding” each time.

B14: 11-13 (ligand)
chain: GQNHHEVVKFMDVYQRSYCHPIETLVDIFQEYPDEIEYIFKPSCVPLMRCGGCCNDEGLECVPTEESNITMQIMRITVPLSQGPKPVTISFANHTSCRCMSKLD
Consider B14, for which the binding result with VEGFR-3-Fc is given as “no binding”; with VEGFR-1-Fc, “binds”; with VEGFR-2-Fc it was “no binding”.

B15: 41-13 (ligand)
chain: AHYNTEILKFMDVYQRSYCHPREVCIDVGKEYPDEIEYIFKPSCVPLMRCGGCCNDEGLECVPTEESNITMQIMRITVPLSQGPKPVTISFANHTSCRCMSKLD
For B15, the binding result with VEGFR-3-Fc, with VEGFR-1-Fc and with VEGFR-2-Fc was “no binding” each time.

B16: 11-15 (ligand)
chain: GQNHHEVVKFMDVYQRSYCHPIETLVDIFQEYPDEIEYIFKPSCVPLMRCGGCCNSEGLQCVPTEESNITMQIMRITVPLSQGPKPVTISFANHTSCRCMSKLD
As to B16, the binding result with VEGFR-3-Fc is given as “no binding”; with VEGFR-1-Fc, “binds”; in the assay with VEGFR-2-Fc, “binds”.

B17: 41-15 (ligand)
chain: AHYNTEILKFMDVYQRSYCHPREVCIDVGKEYPDEIEYIFKPSCVPLMRCGGCCNSEGLQCVPTEESNITMQIMRITVPLSQGPKPVTISFANHTSCRCMSKLD
For the molecule B17, the binding result in the assay with VEGFR-3-Fc, in the assay with VEGFR-1-Fc and with VEGFR-2-Fc was “no binding” each time.

B18: 11-1 (ligand)
chain: GQNHHEVVKFMDVYQRSYCHPIETLVDIFQEYPDEIEYIFKPSCVPLMRCGGCCNDEGLECVPTEESNITMQIMRIKPHQGQHIGEMSFLQHNKCECRPKKDLVFEQKLISEEDLNSAVDHHHHHH
With B18, the binding result with VEGFR-3-Fc is reported as “no binding”; with VEGFR-1-Fc, “binds”; with VEGFR-2-Fc, “binds”.

B19: 72-2 (ligand)
chain: GQNHHEVVKSIDNEWRKTQCMPREVCIDVGKEFGVATNTFFKPPCVSVYRCGGCCNDEGLECMNTSTSYLSKTLFEIKPHQGQHIGEMSFLQHNKCECRPKKD
Consider B19, for which the binding result with VEGFR-3-Fc is “binds”; in the assay with VEGFR-1-Fc it was “no binding”; with VEGFR-2-Fc, “binds”.

B20: 72-8 (ligand)
chain: GQNHHEVVKSIDNEWRKTQCMPREVCIDVGKEFGVATNTFFKPPCVSVYRCGGCCNSEGLQCMNTSTSYLSKTLFEIKPHQGQHIGEMSFANHTSCRCMSKLD
B20: the binding result with VEGFR-3-Fc is listed as “binds”; with VEGFR-1-Fc, “no binding”; with VEGFR-2-Fc, “binds”.

B21: 22-4 (ligand)
chain: AHYNTEILKSIDNEWRKTQCMPREVCIDVGKEFGVATNTFFKPPCVSVYRCGGCCNSEGLQCMNTSTSYLSKTLFEIKPHQGQHIGEMSFLQHNKCECRPKKD
Turning to B21, the binding result is recorded as “binds” in the assay with VEGFR-3-Fc, “no binding” in the assay with VEGFR-1-Fc and “binds” with VEGFR-2-Fc.

B22: 72-4 (ligand)
chain: GQNHHEVVKSIDNEWRKTQCMPREVCIDVGKEFGVATNTFFKPPCVSVYRCGGCCNSEGLQCMNTSTSYLSKTLFEIKPHQGQHIGEMSFLQHNKCECRPKKD
As for B22, the binding result was “binds” with VEGFR-3-Fc, “no binding” in the assay with VEGFR-1-Fc and “binds” in the assay with VEGFR-2-Fc.

B23: 72-6 (ligand)
chain: GQNHHEVVKSIDNEWRKTQCMPREVCIDVGKEFGVATNTFFKPPCVSVYRCGGCCNDEGLECMNTSTSYLSKTLFEIKPHQGQHIGEMSFANHTSCRCMSKLD
For the molecule B23, the binding result is “binds” with VEGFR-3-Fc, “no binding” in the assay with VEGFR-1-Fc and “no binding” with VEGFR-2-Fc.
